Sequences and labels used below:
B1: HL161AN variant No. 15 (LC:N25Q, HC:Q82T) (antibody, human IgG1, V domains shown)
VL: SYVLTQPPSVSVAPGQTARITCGGQNIGSTSVHWYQQKPGQAPVLVVHDDSDRPSGIPERFSGSNSGNTATLTISRVEAGDEADYYCQVRDSSSDHVIFGGGTKLTVLGQPKAAPSVTL
VH: EVQLLESGGGLVQPGGSLRLSCAASEFTFGSCVMTWVRQAPGKGLEWVSVISGSGGSTYYADSVKGRFTISRDNSKNTLYLTMNSLRAEDTAVYYCAKTPWWLRSPFFDYWGQGTLVTVSS
notes: Variable domains only
B2: HL161AN variant No. 6 (LC:N25S, HC:C32S Q82S) (antibody, human IgG1, V domains shown)
VL: B1 VL with Q25S
VH: B1 VH with C32S, T82S
notes: Variable domains only
B3: HL161AN variant No. 5 (LC:N25S, HC:Q82E) (antibody, human IgG1, V domains shown)
VL: B1 VL with Q25S
VH: B1 VH with T82E
notes: Variable domains only
B4: HL161AN variant No. 16 (LC:N25Q, HC:Q82E) (antibody, human IgG1, V domains shown)
VL: B1 VL
VH: B1 VH with T82E
notes: Variable domains only
B5: HL161AN variant No. 10 (LC:N25S, HC:C32Y Q82T) (antibody, human IgG1, V domains shown)
VL: B1 VL with Q25S
VH: B1 VH with C32Y
notes: Variable domains only
B6: HL161AN variant No. 18 (LC:N25Q, HC:C32S Q82T) (antibody, human IgG1, V domains shown)
VL: B1 VL
VH: B1 VH with C32S
notes: Variable domains only
B7: HL161AN variant No. 21 (LC:N25Q, HC:C32Y Q82T) (antibody, human IgG1, V domains shown)
VL: B1 VL
VH: B1 VH with C32Y
notes: Variable domains only
B8: HL161AN variant No. 17 (LC:N25Q, HC:C32S Q82S) (antibody, human IgG1, V domains shown)
VL: B1 VL
VH: B1 VH with C32S, T82S
notes: Variable domains only
B9: HL161AN variant No. 14 (LC:N25Q, HC:Q82S) (antibody, human IgG1, V domains shown)
VL: B1 VL
VH: B1 VH with T82S
notes: Variable domains only
B10: HL161AN variant No. 9 (LC:N25S, HC:C32Y Q82S) (antibody, human IgG1, V domains shown)
VL: B1 VL with Q25S
VH: B1 VH with C32Y, T82S
notes: Variable domains only
B11: HL161AN variant No. 20 (LC:N25Q, HC:C32Y Q82S) (antibody, human IgG1, V domains shown)
VL: B1 VL
VH: B1 VH with C32Y, T82S
notes: Variable domains only
B12: HL161AN (antibody, human IgG1, V domains shown)
VL: B1 VL with Q25N
VH: B1 VH with T82Q
notes: also called HL161AN RS
B13: HL161AN variant No. 3 (LC:N25S, HC:Q82S) (antibody, human IgG1, V domains shown)
VL: B1 VL with Q25S
VH: B1 VH with T82S
notes: Variable domains only
B14: HL161AN variant No. 7 (LC:N25S, HC:C32S Q82T) (antibody, human IgG1, V domains shown)
VL: B1 VL with Q25S
VH: B1 VH with C32S
notes: Variable domains only
B15: HL161AN variant No. 4 (LC:N25S, HC:Q82T) (antibody, human IgG1, V domains shown)
VL: B1 VL with Q25S
VH: B1 VH
notes: Variable domains only

Positions count from the first letter of the chain named. Names may count otherwise.

T2 sequence (P55899 24-365 limits assumed, chain 1 of 2): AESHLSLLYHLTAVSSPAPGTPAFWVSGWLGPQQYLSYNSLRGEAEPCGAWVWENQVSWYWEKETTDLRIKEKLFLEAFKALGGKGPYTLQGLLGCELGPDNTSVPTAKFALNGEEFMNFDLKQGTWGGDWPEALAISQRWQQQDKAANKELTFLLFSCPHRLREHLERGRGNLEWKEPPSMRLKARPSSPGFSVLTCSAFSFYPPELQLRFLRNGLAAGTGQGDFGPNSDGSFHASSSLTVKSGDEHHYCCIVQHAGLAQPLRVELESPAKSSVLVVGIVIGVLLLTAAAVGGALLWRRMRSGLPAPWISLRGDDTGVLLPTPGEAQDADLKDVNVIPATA
T2 sequence (P61769 21-119 limits assumed, chain 2 of 2): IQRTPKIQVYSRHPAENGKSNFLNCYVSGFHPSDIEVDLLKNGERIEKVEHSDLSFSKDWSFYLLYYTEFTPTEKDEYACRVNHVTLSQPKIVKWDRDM

In one experiment the target is T1, shFcRn (soluble human FcRn) (human, UniProt P55899 24-297; P61769 21-119).
T1 construct: extracellular domain; Printed only as 'soluble human FcRn'; also called hFcRn (immobilized on a chip)
T1 sequence (P55899 24-297 limits assumed, chain 1 of 2): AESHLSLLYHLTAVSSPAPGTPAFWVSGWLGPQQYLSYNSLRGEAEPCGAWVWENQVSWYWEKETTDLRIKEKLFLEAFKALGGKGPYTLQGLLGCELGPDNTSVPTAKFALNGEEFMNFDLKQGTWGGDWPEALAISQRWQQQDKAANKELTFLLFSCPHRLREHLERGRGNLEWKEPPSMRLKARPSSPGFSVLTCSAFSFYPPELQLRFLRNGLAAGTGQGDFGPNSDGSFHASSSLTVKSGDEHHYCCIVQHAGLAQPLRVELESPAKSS
T1 sequence (P61769 21-119 limits assumed, chain 2 of 2): as the sequence (P61769 21-119 limits assumed, chain 2 of 2) above
Put plainly: SPR, hFcRn immobilized on chip, pH 6.0. (In SPR one partner is held on a chip, and binding of the other changes the refractive index at the surface.)
Description: (§1) Kinetic analysis was performed using a 1:1 Langmuir binding model, and the average KD value was obtained by repeating the analysis 6 times in each condition of pH 6.0 and pH 7.4.
(§2) Chip activation was performed under EDAC/NHS 0.5×, 30 μL/min, and 300 sec conditions. Thereafter, shFcRn was prepared at 2 μg/mL, 250 μL using an acetate buffer (pH 5.5), and immobilization was performed while flowing at 30 μL/min. The reaction was stopped when the immobilization level corresponded to 200 RU to 300 RU. Thereafter, deactivation was performed using ethanolamine at 30 μL/min, 300 sec. […] Sample dilution was performed using 1×PBST (pH 7.4) or 1×PBST (pH 6.0) buffer depending on the analysis pH. In the sample analysis conditions, association was carried out by reaction at 50 μL/min, 200 sec, and dissociation was carried out by reaction at 50 μL/min, 600 sec. Thereafter, reaction was carried out using a glycine buffer (pH 2.0) at 100 μL/min, 18 sec to perform regeneration. For kinetic analysis, samples were prepared and reacted once in three cells to which shFcRn was immobilized. Then three kinetic values were obtained, and then an average KD value was measured. When analyzing reaction signals, interspot-referencing and signals in which only buffer was analyzed were used for a double-referencing.
B1 had a dissociation constant (Kd) of 0.33 nM. In other words, the sub-nanomolar range.
As for B2, binding was put at a Kd of 0.13 nM. This Kd is about 2.5-fold lower than that of the molecule before.
With B3, the dissociation constant Kd was found to be 0.16 nM.
The molecule B4 registered a Kd of 0.33 nM.
B5 returned an equilibrium dissociation constant (Kd) of 0.15 nM.
B6: the affinity, expressed as Kd, was 0.25 nM. This Kd lies about 1.7-fold higher than the previous one.
Molecule B7 had a Kd of 0.18 nM.
The same measure, in the same setting: the result for B8 reads 0.22 nM; that for B9, 0.2 nM.
With B10, the Kd came to 0.16 nM. This Kd and that of the molecule before are within 1.5-fold of each other.
As for B11, binding was characterised by a dissociation constant (Kd) of 0.17 nM.

The next experiment addresses T1, shFcRn (soluble human FcRn). Put plainly: SPR, hFcRn immobilized on chip, pH 7.4.
Description: as §1, §2
Turning to B12, the Kd was found to be 0.27 nM.
Regarding B1, the affinity, expressed as Kd, was 0.36 nM.
Molecule B13 yielded a Kd of 0.21 nM.
Take B3: the Kd was 0.67 nM. Compared with the last molecule, the Kd is about 3.2-fold higher.
With B4, the Kd came out at 0.43 nM.
For B5, binding was put at a Kd of 0.36 nM.
Regarding B14, binding was put at a Kd of 0.21 nM. Compared with the last molecule, the Kd is about 1.7-fold lower.
In the case of B6, binding was put at a Kd of 0.33 nM.
For the molecule B7, the affinity, expressed as Kd, was 0.3 nM.
B8 displayed a Kd of 0.3 nM.
Regarding B15, the Kd amounted to 0.27 nM.
Same read-out and setting: the result for B9 reads 0.35 nM; that for B11, 0.35 nM.

A further experiment has as its target T2, hFcRn on hFcRn-expressing HEK293 cells (human, UniProt P55899 24-365; P61769 21-119).
T2 construct: whole, on cells; also called hFcRn HEK293
Put plainly: FACS on hFcRn HEK293 cells, 10 nM antibody, pH 6.0.
Description: (§3) The analysis of hFcRn binding using FACS was carried out under two conditions of pH 6.0 and pH 7.4. hFcRn-expressing 1TEK293 (hFcRn HEK293) cells were diluted with the reaction buffer (0.0500 BSA in PBS, pH 6.0 or pH 7.4) and prepared in duplicate in a 96 well plate at 1×10⁵ cells for each sample. In addition, each antibody sample was diluted with the reaction buffer to 10 nM, and then put into a 96 well plate, and incubated at 4° C. for 90 minutes. Thereafter, the plate was centrifuged to remove the supernatant, and then Alexa488-goat anti-hIgG Ab (1:200) was added thereto, and again incubated at 4° C. for 90 minutes. After the reaction was completed, it was centrifuged to remove the supernatant, and 200 μL of the reaction buffer was added to resuspend the cell pellet, and then the MFI value was measured in a FACS instrument.
In turn, B12 returned an MFI of 2720 MFI.
Turning to B1, the MFI turned out to be 2570 MFI.
On the same count and under the same terms, in the case of B13 it was 2440 MFI; in that of B2, 2650 MFI; in that of B3, 2570 MFI.
For B4, the MFI was 2540 MFI.
In turn, B5 had an MFI of 2580 MFI.
B14 showed an MFI of 2550 MFI.
In turn, B6 displayed an MFI of 2520 MFI.
As for B7, the MFI worked out at 2430 MFI.
B8 showed an MFI of 2640 MFI.
The molecule B15 yielded an MFI of 2690 MFI.
In turn, B9 showed an MFI of 2590 MFI.
Same read-out and setting: the result for B10 reads 2660 MFI; that for B11, 2520 MFI.

The next experiment has as its target T2, hFcRn on hFcRn-expressing HEK293 cells. Put plainly: FACS on hFcRn HEK293 cells, 10 nM antibody, pH 7.4.
Description: as §3
Molecule B12 showed an MFI of 6150 MFI.
As for B1, the MFI came to 6540 MFI.
Consider B13, for which the MFI was found to be 6240 MFI.
Same read-out and setting: in the case of B2 it was 6920 MFI; in that of B3, 6350 MFI; in that of B4, 6210 MFI.
For the molecule B5, the MFI was determined as 6660 MFI.
B14: the MFI worked out at 6620 MFI.
The same measure, in the same setting: in the case of B6 it was 6910 MFI; in that of B7, 6030 MFI.
Consider B8, for which the MFI is 6750 MFI.
Same read-out and setting: in the case of B15 it was 6300 MFI.
Still for that read-out and setting: in the case of B9 it was 6490 MFI; in that of B10, 6750 MFI; in that of B11, 5840 MFI.

For the next experiment, the target named is T1, shFcRn (soluble human FcRn). Briefly: SPR, shFcRn immobilized on chip, antibody as analyte, pH 6.0.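 Also: kinetics fitted with a 1:1 Langmuir model, association 200 s and dissociation 600 s, samples diluted in PBST, double-referenced signals, values averaged across three shFcRn-coated cells.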
Description: as §1, §2
Consider B12, for which binding was put at a Kd of 0.116 nM.
Take B1: binding was put at a Kd of 0.265 nM, the koff is 0.000601 s⁻¹ and the kon is 2.27e+06 M⁻¹ s⁻¹.
Regarding B13, the Kd was 0.145 nM.
Molecule B2 showed a dissociation constant (Kd) of 0.163 nM.
Regarding B3, binding was put at a Kd of 0.229 nM, the koff amounted to 0.000563 s⁻¹ and the kon came to 2.46e+06 M⁻¹ s⁻¹.
For the molecule B4, the dissociation constant Kd worked out at 0.271 nM, the koff was 0.000556 s⁻¹ and the kon was found to be 2.05e+06 M⁻¹ s⁻¹.
The molecule B5 registered a Kd of 0.205 nM, a koff of 0.000573 s⁻¹ and an on-rate constant (kon) of 2.8e+06 M⁻¹ s⁻¹.
With B14, the affinity, expressed as Kd, was 0.152 nM.
On to B6, for which binding was characterised by a dissociation constant (Kd) of 0.198 nM, the koff was found to be 0.000562 s⁻¹ and the kon was determined as 2.84e+06 M⁻¹ s⁻¹.
As for B7, the Kd was found to be 0.206 nM, the koff amounted to 0.000552 s⁻¹ and the kon is 2.67e+06 M⁻¹ s⁻¹.
The molecule B8 had a Kd of 0.169 nM, a koff of 0.000538 s⁻¹ and a kon of 3.19e+06 M⁻¹ s⁻¹.
B15 registered a dissociation constant (Kd) of 0.156 nM. That is a sub-nanomolar value.
As for B9, the dissociation constant Kd was 0.208 nM, the koff came to 0.000558 s⁻¹ and the on-rate constant (kon) is 2.68e+06 M⁻¹ s⁻¹.
Molecule B10 yielded an equilibrium dissociation constant (Kd) of 0.177 nM.
For B11, the Kd came out at 0.2 nM, the koff amounted to 0.000509 s⁻¹ and the association rate constant (kon) turned out to be 2.54e+06 M⁻¹ s⁻¹.

The next experiment has the same target. Put plainly: SPR, shFcRn immobilized on chip, antibody as analyte, pH 7.4.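 Also: kinetics fitted with a 1:1 Langmuir model, association 200 s and dissociation 600 s in PBST, double-referenced against buffer-only and interspot signals, values averaged over repeated runs.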
Description: as §1, §2
In turn, B12 registered a Kd of 0.294 nM.
As for B1, the Kd was 0.279 nM, the dissociation rate constant (koff) was found to be 0.000513 s⁻¹ and the kon worked out at 1.84e+06 M⁻¹ s⁻¹.
Consider B13, for which the Kd was determined as 0.199 nM.
As for B3, the affinity, expressed as Kd, was 0.637 nM; the koff is 0.000743 s⁻¹; the kon came to 1.17e+06 M⁻¹ s⁻¹.
With B4, the Kd turned out to be 0.272 nM, the off-rate constant (koff) turned out to be 0.000504 s⁻¹ and the on-rate constant (kon) turned out to be 1.86e+06 M⁻¹ s⁻¹.
On the same counts, the results for B5 are 0.256 nM, 0.000494 s⁻¹ and 1.93e+06 M⁻¹ s⁻¹.
In the case of B14, the equilibrium dissociation constant (Kd) worked out at 0.187 nM.
B6 had an equilibrium dissociation constant (Kd) of 0.226 nM, a dissociation rate constant (koff) of 0.000542 s⁻¹ and an on-rate constant (kon) of 2.39e+06 M⁻¹ s⁻¹.
As for B7, the equilibrium dissociation constant (Kd) was found to be 0.209 nM, the dissociation rate constant (koff) amounted to 0.000499 s⁻¹ and the kon was 2.39e+06 M⁻¹ s⁻¹.
For the molecule B8, the equilibrium dissociation constant (Kd) is 0.249 nM, the koff was 0.000566 s⁻¹ and the on-rate (kon) was found to be 2.27e+06 M⁻¹ s⁻¹.
B15 returned a Kd of 0.24 nM. That is a sub-nanomolar value.
Turning to B9, the Kd came out at 0.283 nM, the off-rate constant (koff) is 0.000551 s⁻¹ and the kon worked out at 1.95e+06 M⁻¹ s⁻¹.
Consider B10, for which binding was characterised by a dissociation constant (Kd) of 0.245 nM.
Take B11: the Kd was 0.283 nM, the off-rate (koff) amounted to 0.00056 s⁻¹ and the kon was determined as 1.98e+06 M⁻¹ s⁻¹.

Another experiment concerns the target T2, hFcRn on hFcRn-expressing HEK293 cells. Briefly: FACS on hFcRn HEK293 cells, 10 nM antibody, pH 6.0, high concentration sample.
Description: as §3
For B12, the MFI came out at 2950 MFI.

Another experiment shares this target. Put plainly: FACS on hFcRn HEK293 cells, 10 nM antibody, pH 7.4, high concentration sample.
Description: as §3
Take B12: the MFI turned out to be 7160 MFI.

A further experiment has the same target. Put plainly: FACS on hFcRn HEK293 cells, pH 6.0; head prints 'FACS binding (EC50, nM)', taken as blocking of competitor Alexa488-hIgG1 (Example 4.5). In general terms: In flow cytometry, cells or beads pass a laser one at a time.
Description: (§4) 1×10⁷ hFcRn HEK293 cells were seeded into a T75 flask and cultured for 24 hours. After culturing, the cells were removed and placed in a 96 well plate at 1×10⁵ cells for each sample in duplicate. […] After the reaction was completed, it was centrifuged to remove the supernatant. 200 μL of the reaction buffer was added to resuspend the cell pellet, and then the MFI value was measured in a FACS instrument.
B12: the EC50 is 1.83 nM. That is a single-digit nanomolar value.
Molecule B1 had an EC50 of 1.1 nM. This EC50 is about 1.7-fold lower than that of the molecule before.
In the case of B13, the response was half-maximal at 1.4 nM (EC50).
Still for that read-out and setting: in the case of B2 it was 1.31 nM; in that of B3, 1.46 nM; in that of B4, 1.74 nM.
As for B5, the response was half-maximal at 1.37 nM (EC50).
B14 came in with an EC50 of 1.28 nM.
For the molecule B6, the midpoint of the response, the EC50, lay at 1.15 nM.
In the case of B7, the concentration for a half-maximal effect (EC50) was 1.11 nM.
Molecule B8 returned a 50% effective concentration (EC50) of 1.3 nM. This EC50 and that of the molecule before are within 1.5-fold of each other.
The same measure, in the same setting: the result for B15 reads 1.47 nM; that for B9, 1.29 nM; that for B10, 1.43 nM.
In turn, B11 had a 50% effective concentration (EC50) of 1.16 nM.

The target is the same in a further experiment. Briefly: FACS on hFcRn HEK293 cells, pH 6.0, high concentration sample; head prints 'FACS binding (EC50, nM)', taken as blocking of competitor Alexa488-hIgG1 (Example 5.5).
Description: as §4
The evaluation of hFcRn blocking was performed at 0.1 nM, 1 nM, 10 nM, and 100 nM using FACS.
Molecule B12 gave an EC50 of 0.91 nM.

As usually defined, the Kd is the concentration at which binding is half-saturated. Usually koff stands for a measure of how fast the partners let go of each other. In general, kon refers to the second-order rate constant of association. Low readings indicate slower complex formation, high ones faster complex formation. A word on the EC50: it is the midpoint of the concentration-response curve. Low values mean higher potency in that assay, high ones lower potency in that assay.

The values are drawn from patent US20230391876A1 (HANALL BIOPHARMA, published 2023).
